According to PMC9188544, “Mechanism of glycogen synthase inactivation and interaction with glycogenin” (Nature Communications, 2022):
Substitutions are numbered along the chain they refer to. Names and notes keep the numbering of the source.

What was measured:
Assay in all cases: co-purification (HisTrap, TEV cleavage, Ni subtraction, Superdex200 gel filtration); GS WT or mutant co-expressed with GN(Y195F) in insect cells, both with N-terminal His6-TEV; lysate loaded on the HisTrap column
Conditions in all cases: partners not purified
[1] = target: T1, human glycogen synthase 1 (GS1) W18A (human, UniProt P13807 1-737, W18A, phosphorylation at S8, S641 and S641/S645 probed by immunoblot (Fig. 4b))
T1 construct: glycogen synthase 1 (muscle), human, encoded by GYS1, cDNA NM 002103; also called GS W18A; not shown: His6, N-terminal, cleaved
T1 sequence (looked up): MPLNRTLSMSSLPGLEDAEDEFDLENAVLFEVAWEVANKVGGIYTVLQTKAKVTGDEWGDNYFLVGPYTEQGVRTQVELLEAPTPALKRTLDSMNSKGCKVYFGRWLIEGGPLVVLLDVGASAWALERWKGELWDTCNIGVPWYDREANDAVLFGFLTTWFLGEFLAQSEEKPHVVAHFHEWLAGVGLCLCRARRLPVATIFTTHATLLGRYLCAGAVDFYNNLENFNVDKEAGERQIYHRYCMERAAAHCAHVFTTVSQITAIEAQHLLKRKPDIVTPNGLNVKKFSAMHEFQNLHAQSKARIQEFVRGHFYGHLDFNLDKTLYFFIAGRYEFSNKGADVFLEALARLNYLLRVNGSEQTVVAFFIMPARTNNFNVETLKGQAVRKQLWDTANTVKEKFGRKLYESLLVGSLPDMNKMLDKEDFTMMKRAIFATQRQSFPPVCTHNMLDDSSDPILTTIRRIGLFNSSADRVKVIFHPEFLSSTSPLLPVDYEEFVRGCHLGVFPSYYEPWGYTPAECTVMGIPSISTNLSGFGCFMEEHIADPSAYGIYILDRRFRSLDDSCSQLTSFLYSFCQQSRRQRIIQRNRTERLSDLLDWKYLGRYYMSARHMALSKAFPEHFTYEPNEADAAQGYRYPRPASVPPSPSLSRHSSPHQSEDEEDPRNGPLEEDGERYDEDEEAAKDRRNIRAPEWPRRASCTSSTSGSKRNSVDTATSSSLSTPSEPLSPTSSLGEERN

[2] = target: T2, human glycogen synthase 1 (GS1) R588A + R591A (human, UniProt P13807 1-737, R588A | R591A, phosphorylation at S8, S641 and S641/S645 probed by immunoblot (Fig. 4b))
T2 construct: glycogen synthase 1 (muscle), human, encoded by GYS1, cDNA NM 002103; also called GS R588A + R591A double mutant; not shown: His6, N-terminal, cleaved
T2 sequence (looked up): T1 sequence (looked up) with A18W, R588A, R591A

[3] = target: T3, human glycogen synthase 1 (GS1) R603A (human, UniProt P13807 1-737, R603A, phosphorylation at S8, S641 and S641/S645 probed by immunoblot (Fig. 4b))
T3 construct: glycogen synthase 1 (muscle), human, encoded by GYS1, cDNA NM 002103; also called GS R603A; not shown: His6, N-terminal, cleaved
T3 sequence (looked up): T1 sequence (looked up) with A18W, R603A

Measured: binding result

B1: human glycogenin 1 (GN1) Y195F, full length, non-glucosylated (enzyme, UniProt P46976-2 1-333, looked up)
chain: MTDQAFVTLTTNDAYAKGALVLGSSLKQHRTTRRLVVLATPQVSDSMRKVLETVFDEVIMVDVLDSGDSAHLTLMKRPELGVTLTKLHCWSLTQYSKCVFMDADTLVLANIDDLFDREELSAAPDPGWPDCFNSGVFVYQPSVETYNQLLHLASEQGSFDGGDQGILNTFFSSWATTDIRKHLPFIYNLSSISIFSYLPAFKVFGASAKVVHFLGRVKPWNYTYDPKTKSVKSEAHDPNMTHPEFLILWWNIFTTNVLPLLQQFGLVKDTCSYVNVEDVSGAISHLSLGEIPAMAQPFVSSEERKERWEQGQADYMGADSFDNIKRKLDTYLQ
notes: glycogenin 1, human, encoded by GYG1, cDNA NM 001184720, full length; expected ~37.5 kDa; the C-terminal GN34 region is modelled as residues 300-332, which fits the 333-residue isoform; Cloned in pFL (with untagged GS) and in pFastBac (co-infected with His6-TEV-GS WT or mutants); Both carry an N-terminal His6 tag and a cleavable site, so they are treated as one molecule; also called GN(Y195F); GN …
binds: all assays above
